What all share (assay): Phosphatase assay with ENDY(P)INASL as substrate
What all share (format): biochemical

One test deals with T1, RPTPα (Homo sapiens, UniProt P18433).
T1 construct: made in house; host or cells: Sf9 cells (baculovirus)
In short, it runs like this:
(§1)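 Sf9-expressed TC.PTP, TCΔC11.PTP and RPTPα, plus placental 37 kDa PTP1B, incubated with phosphopeptide ENDY(P)INASL and effectors in buffer M6 for 10 min at 30° C. Reaction stopped with acidic Norit A charcoal suspension; released radioactivity counted in cleared supernatant.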

In a further test the target is T2, CD45 (Homo sapiens, UniProt P08575).
T2 construct: CD45 were purified from placenta and spleen, respectively; from tissue; host or cells: spleen
T2 sequence (P08575 26-1306): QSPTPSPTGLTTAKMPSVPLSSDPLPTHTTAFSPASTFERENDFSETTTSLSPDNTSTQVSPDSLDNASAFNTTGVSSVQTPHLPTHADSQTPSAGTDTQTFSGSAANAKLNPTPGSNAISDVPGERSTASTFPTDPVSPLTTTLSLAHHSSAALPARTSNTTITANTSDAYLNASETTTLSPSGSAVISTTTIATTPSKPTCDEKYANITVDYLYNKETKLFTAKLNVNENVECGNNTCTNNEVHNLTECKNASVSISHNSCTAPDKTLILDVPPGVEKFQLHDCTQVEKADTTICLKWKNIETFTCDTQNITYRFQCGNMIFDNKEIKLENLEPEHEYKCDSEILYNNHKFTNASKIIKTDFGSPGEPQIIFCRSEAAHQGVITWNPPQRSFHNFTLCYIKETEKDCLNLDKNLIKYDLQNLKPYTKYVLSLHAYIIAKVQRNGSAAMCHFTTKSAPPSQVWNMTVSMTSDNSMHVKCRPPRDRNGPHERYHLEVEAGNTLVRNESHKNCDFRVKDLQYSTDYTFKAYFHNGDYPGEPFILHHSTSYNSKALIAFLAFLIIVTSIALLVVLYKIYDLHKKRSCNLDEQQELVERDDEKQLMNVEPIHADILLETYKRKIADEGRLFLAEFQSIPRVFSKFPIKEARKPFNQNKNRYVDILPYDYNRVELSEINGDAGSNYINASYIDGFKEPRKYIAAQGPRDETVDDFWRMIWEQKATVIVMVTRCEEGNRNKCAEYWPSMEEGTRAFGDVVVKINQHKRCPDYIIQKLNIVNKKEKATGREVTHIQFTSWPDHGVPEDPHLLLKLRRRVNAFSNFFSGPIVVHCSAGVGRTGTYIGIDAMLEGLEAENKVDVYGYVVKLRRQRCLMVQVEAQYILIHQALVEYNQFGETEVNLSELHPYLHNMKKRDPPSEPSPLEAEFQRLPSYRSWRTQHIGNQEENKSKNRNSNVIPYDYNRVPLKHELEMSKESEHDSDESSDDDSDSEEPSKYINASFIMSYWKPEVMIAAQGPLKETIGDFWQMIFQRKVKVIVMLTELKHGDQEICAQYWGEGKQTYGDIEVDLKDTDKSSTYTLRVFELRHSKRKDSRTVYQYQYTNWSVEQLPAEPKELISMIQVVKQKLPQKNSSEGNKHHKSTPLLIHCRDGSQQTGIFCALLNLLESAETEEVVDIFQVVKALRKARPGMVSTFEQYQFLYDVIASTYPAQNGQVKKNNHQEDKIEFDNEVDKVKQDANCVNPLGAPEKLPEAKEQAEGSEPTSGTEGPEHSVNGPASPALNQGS
Put shortly:
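Dephosphorylation of ENDY(P)INASL was followed at 30° C over 10 minutes in buffer M6. Recombinant RPTPα and TC.PTP (Sf9) plus tissue-derived PTP1B (placenta, 37 kDa) and CD45 (spleen) served as enzymes; charcoal-cleared supernatant was counted.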

A further test has as its target T3, TCΔC11.PTP (Homo sapiens, UniProt P17706).
T3 construct: both the wild type and truncated forms of the T-cell phosphatase; made in house; host or cells: Sf9 cells (baculovirus)
T3 sequence (P17706 1-317 limits assumed): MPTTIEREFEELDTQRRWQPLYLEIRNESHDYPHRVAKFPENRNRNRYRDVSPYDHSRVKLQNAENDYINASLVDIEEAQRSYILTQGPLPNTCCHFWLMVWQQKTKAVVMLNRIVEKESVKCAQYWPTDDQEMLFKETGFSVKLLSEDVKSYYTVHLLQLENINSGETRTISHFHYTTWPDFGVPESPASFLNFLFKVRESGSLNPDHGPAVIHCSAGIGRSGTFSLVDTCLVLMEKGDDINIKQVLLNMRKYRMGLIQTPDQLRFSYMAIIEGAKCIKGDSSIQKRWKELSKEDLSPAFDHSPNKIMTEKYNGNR
In short, it runs like this:
as §1

In another test the target is T4, TC.PTP (Homo sapiens, UniProt P17706).
T4 construct: made in house; host or cells: Sf9 cells (baculovirus)
T4 sequence (P17706 1-415): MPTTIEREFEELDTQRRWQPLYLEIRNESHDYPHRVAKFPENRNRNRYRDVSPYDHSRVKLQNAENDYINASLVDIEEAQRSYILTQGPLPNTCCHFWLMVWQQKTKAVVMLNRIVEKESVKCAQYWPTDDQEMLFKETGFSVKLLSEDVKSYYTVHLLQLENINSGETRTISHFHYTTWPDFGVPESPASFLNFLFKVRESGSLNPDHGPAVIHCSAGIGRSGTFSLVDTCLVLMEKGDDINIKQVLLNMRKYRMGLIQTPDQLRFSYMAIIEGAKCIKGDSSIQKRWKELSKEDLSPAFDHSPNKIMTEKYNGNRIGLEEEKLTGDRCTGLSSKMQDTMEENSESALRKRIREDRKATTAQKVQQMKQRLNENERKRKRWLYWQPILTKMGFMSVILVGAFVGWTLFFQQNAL
The note with it: TC20. In short, it runs like this:
as §1

Where [1] appears, read: non-linear regression of substrate saturation curves, mean of two experiments.
[2] abbreviates: one unit = release of 1 nmol phosphate per minute.

Where no end group is shown, it is not given here. [ ]: non-standard residue; d: D form. pY = N[C@@H](Cc1ccc(OP(=O)(O)O)cc1)C(=O)O

T1 sequence (P18433 20-802): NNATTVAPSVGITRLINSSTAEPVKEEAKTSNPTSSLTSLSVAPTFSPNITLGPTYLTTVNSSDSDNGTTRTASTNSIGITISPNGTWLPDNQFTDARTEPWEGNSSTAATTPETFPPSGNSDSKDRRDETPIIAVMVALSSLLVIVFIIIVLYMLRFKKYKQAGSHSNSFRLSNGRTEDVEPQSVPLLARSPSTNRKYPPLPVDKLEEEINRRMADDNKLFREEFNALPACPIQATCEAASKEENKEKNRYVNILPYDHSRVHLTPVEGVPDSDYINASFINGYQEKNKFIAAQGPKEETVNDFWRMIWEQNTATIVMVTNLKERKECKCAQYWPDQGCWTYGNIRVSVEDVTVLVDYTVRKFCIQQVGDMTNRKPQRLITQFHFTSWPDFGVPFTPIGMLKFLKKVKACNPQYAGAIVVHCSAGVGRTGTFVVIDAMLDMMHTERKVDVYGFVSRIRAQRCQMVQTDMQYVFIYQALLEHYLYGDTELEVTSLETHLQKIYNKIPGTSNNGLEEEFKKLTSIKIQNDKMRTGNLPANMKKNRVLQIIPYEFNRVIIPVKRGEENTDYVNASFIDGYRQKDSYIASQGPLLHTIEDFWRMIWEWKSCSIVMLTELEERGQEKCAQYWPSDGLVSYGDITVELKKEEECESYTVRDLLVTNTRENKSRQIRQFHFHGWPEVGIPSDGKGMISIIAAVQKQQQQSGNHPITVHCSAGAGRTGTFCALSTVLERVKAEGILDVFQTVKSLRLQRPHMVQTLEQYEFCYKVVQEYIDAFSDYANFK

A word on the Km: it is the concentration of substrate that gives half-maximal velocity. For “ENDY(P)INASL: ENDYINASL phosphorylated on its tyrosine residue (32P), used as PTP substrate (END[pY]INASL; also: phosphate 32P-labelled)”, the Km was 32.5 ± 3.06 µM in the test with RPTPα (setting [1]), 13.8 ± 0.28 µM in the test with CD45 (setting [1]), 1 ± 0.4 µM with TCΔC11.PTP (setting [1]) and 1.13 ± 0.14 µM in the test with TC.PTP (setting [1]). Also, the Vmax in the test with RPTPα (setting [2]) is 1038 +/- 88 U/mg; in the test with CD45 (setting [2]), 1622 +/- 23 U/mg; in the test with TCΔC11.PTP (setting [2]) it was 13374 +/- 970 U/mg; with TC.PTP (setting [2]) it was 14221 +/- 7104 U/mg.

Source of the values: patent US5739278A, “Compositions for protein tyrosine phosphatases” (University of Washington, priority 1995, dated 1998).
